Tested on: MBP-ERS WT (human)
Assay: EMSA
Conditions: 1 mM Mg2+; 5 ug/mL heparin (unit prefix not given); none (in vitro transcript); 25 mM Tris-HCl pH 7.5, 50 mM NaCl, 1 mM MgCl2, 1 mM DTT, 5 ug/mL heparin (prefix not given), 10 nM 32P-tRNA, room temperature 30 min; native 4-16% gel on …

In the case of human tRNAGlu(TTC), the Kd is reported as 516 nM.
